# Data taken from paper doi:10.1101/2022.11.11.516238.
# Tests used:
# [1] = target: T1, NhaR (Vibrio parahaemolyticus) (UniProt Q87S97); test: EMSA
# T1 sequence: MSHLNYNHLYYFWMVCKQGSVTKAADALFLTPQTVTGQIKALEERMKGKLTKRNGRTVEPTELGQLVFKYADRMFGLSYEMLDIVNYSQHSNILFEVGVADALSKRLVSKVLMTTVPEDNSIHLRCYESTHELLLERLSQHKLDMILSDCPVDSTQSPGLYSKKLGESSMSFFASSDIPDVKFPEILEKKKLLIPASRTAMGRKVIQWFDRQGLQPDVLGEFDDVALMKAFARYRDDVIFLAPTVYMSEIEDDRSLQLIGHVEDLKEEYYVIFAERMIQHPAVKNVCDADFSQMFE
# [2] = target: T2, LeuO (Vibrio parahaemolyticus) (UniProt Q87SS2); test: EMSA
# T2 sequence: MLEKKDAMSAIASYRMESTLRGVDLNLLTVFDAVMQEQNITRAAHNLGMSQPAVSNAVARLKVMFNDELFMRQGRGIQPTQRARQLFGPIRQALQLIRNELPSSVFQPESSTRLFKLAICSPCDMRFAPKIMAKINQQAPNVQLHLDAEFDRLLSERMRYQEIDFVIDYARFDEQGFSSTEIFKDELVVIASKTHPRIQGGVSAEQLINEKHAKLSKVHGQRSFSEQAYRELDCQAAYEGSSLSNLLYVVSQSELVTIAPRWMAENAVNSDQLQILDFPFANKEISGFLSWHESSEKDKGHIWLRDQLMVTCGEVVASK
sequence,measurement,setting,value
CCAAGGTGCTGATGTGATCATTTTGAAATACATATCCTTTGACGTCTAATTAAATTTCGTATTTATTATGGACATTCTTTACGGTTGAAAATCAAATAATCTGCGTTTTAATCTGGATTAATGTG (double strand) [PectA probe 1A],binding,[1],binds
same,binding,[2],binds
CCACGACGACAAAACTAACCTTAAAACGGCATGCGAAAGTGTGCCGTTTTTTTATGTAAAAAACCTTAAGTCCCCTCTTTGAAACCCCACTGCATTCTGACTCAT (double strand) [PectA probe 1C],binding,[1],binds
same,binding,[2],binds
